Data as given in patent US20190175609A1 (Novartis, published 2019).
Where a chain is given by its changes, count along the chain named.

B1: Chi mAb (Tyr) (antibody, human IgG4 S228P, kappa, V domains shown)
VH: QVQLQQSGSELVRPGASVKLSCKASGYTFTTYWMHWVRQRPGQGLEWIGNIYPGTGGSNFDEKFKNRTSLTVDTSSTTAYMHLASLTSEDSAVYYCTRWTTGTGAYWGQGTTVTVSS
VL: DIVMTQSPSSLTVTAGEKVTMSCKSSQSLLDSGNQKNFLTWYQQKPGQPPKLLIFWASTRESGVPDRFTGSGSVTDFTLTISSVQAEDLAVYYCQNDYSYPYTFGQGTKVEIKR
notes: also called BAP049-chi-Y; Chi (Tyr)
B2: murine anti-PD-1 mAb BAP049 (antibody, V domains shown)
VH: B1 VH with T112L, S117A
VL: DIVMTQSPSSLTVTAGEKVTMSCKSSQSLLDSGNQKNFLTWYQQKPGQPPKLLIFWASTRESGVPDRFTGSGSVTDFTLTISSVQAEDLAVYYCQNDYSYPCTFGGGTKLEIK
notes: the murine constant regions are not described; also called Mu mAb; murine mAb BAP049
B3: BAP049-hum10 (antibody, human IgG4 S228P, kappa)
heavy: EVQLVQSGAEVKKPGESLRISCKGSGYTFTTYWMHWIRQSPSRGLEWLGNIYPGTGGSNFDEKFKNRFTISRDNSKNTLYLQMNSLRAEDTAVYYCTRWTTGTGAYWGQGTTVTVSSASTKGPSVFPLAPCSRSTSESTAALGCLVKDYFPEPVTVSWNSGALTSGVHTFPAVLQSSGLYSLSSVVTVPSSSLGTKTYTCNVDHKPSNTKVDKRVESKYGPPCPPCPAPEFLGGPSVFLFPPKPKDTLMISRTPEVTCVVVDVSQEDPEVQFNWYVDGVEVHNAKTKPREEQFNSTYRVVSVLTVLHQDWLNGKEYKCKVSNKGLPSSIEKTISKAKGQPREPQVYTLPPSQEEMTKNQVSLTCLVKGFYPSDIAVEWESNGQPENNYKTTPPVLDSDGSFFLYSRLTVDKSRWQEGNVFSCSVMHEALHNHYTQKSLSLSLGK
light: EIVLTQSPATLSLSPGERATLSCKSSQSLLDSGNQKNFLTWYQQKPGQAPRLLIYWASTRESGVPSRFSGSGSGTDFTFTISSLEAEDAATYYCQNDYSYPYTFGQGTKVEIKRTVAAPSVFIFPPSDEQLKSGTASVVCLLNNFYPREAKVQWKVDNALQSGNSQESVTEQDSKDSTYSLSSTLTLSKADYEKHKVYACEVTHQGLSSPVTKSFNRGEC
notes: Humanized mAb
B4: BAP049-hum01 (antibody, human IgG4 S228P, kappa, V domains shown)
VH: EVQLVQSGAEVKKPGESLRISCKGSGYTFTTYWMHWVRQATGQGLEWMGNIYPGTGGSNFDEKFKNRVTITADKSTSTAYMELSSLRSEDTAVYYCTRWTTGTGAYWGQGTTVTVSS
VL: EIVLTQSPATLSLSPGERATLSCKSSQSLLDSGNQKNFLTWYQQKPGQAPRLLIYWASTRESGVPSRFSGSGSGTEFTLTISSLQPDDFATYYCQNDYSYPYTFGQGTKVEIKR
notes: Humanized mAb
B5: BAP049-hum05 (antibody, human IgG4 S228P, kappa, V domains shown)
VH: B4 VH
VL: B4 VL with Q48K, R51K, E76D, L79F, D87E, F89I
notes: Humanized mAb
B6: BAP049-hum03 (antibody, human IgG4 S228P, kappa, V domains shown)
VH: EVQLVQSGAEVKKPGESLRISCKGSGYTFTTYWMHWIRQSPSRGLEWLGNIYPGTGGSNFDEKFKNRFTISRDNSKNTLYLQMNSLRAEDTAVYYCTRWTTGTGAYWGQGTTVTVSS
VL: DIQMTQSPSSLSASVGDRVTITCKSSQSLLDSGNQKNFLTWYQQKPGQAPRLLIYWASTRESGIPPRFSGSGYGTDFTLTINNIESEDAAYYFCQNDYSYPYTFGQGTKVEIKR
notes: also called Clone No. 3
B7: BAP049-hum12 (antibody, human IgG4 S228P, kappa, V domains shown)
VH: B4 VH
VL: DIQMTQSPSSLSASVGDRVTITCKSSQSLLDSGNQKNFLTWYLQKPGQSPQLLIYWASTRESGVPSRFSGSGSGTDFTFTISSLEAEDAATYYCQNDYSYPYTFGQGTKVEIKR
notes: also called Clone No. 12
B8: BAP049-hum02 (antibody, human IgG4 S228P, kappa, V domains shown)
VH: B4 VH
VL: B6 VL
notes: also called Clone No. 2
B9: BAP049-hum11 (antibody, human IgG4 S228P, kappa)
heavy: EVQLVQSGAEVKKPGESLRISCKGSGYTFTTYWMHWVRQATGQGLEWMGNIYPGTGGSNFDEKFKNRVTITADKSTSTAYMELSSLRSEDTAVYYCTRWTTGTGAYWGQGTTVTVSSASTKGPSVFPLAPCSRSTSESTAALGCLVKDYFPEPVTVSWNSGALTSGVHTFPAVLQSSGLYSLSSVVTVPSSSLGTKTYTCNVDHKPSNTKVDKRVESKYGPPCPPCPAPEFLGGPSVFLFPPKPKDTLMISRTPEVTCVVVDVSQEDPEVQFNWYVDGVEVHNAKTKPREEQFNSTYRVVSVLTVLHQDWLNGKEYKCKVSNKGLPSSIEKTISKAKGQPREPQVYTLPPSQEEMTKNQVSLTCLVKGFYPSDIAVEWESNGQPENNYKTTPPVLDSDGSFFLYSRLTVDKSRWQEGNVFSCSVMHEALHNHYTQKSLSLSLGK
light: B3 light
notes: Humanized mAb
B10: BAP049-hum08 (antibody, human IgG4 S228P, kappa)
heavy: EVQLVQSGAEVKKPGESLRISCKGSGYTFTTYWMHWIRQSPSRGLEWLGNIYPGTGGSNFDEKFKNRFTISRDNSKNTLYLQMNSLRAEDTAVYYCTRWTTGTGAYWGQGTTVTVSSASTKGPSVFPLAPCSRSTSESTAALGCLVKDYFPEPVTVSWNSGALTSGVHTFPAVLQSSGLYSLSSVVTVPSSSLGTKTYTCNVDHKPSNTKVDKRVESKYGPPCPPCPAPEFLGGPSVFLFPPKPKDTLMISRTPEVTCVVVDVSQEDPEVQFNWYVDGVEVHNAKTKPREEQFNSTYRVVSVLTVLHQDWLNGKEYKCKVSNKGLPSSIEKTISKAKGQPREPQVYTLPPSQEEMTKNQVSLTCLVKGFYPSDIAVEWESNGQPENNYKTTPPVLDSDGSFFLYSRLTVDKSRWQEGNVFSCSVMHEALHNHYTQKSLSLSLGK
light: B3 light with A9D, T10F, L11Q, L13V, S14T, G16K, R18K, A19V, L21I, S22T
notes: Humanized mAb
B11: BAP049-hum14 (antibody, human IgG4 S228P, kappa)
heavy chain: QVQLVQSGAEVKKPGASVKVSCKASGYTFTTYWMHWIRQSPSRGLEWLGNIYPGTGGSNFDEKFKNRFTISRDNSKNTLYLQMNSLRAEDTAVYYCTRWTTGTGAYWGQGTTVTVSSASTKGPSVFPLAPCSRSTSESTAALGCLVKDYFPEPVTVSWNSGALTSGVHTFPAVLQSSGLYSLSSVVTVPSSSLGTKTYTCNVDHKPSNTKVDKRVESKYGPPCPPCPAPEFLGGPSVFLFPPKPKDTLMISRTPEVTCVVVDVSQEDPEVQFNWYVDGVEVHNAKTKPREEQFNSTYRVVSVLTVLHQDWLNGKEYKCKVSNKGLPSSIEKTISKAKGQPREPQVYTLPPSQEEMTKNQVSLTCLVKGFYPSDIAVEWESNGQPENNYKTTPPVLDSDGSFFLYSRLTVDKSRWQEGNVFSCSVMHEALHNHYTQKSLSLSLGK
light chain: B3 light
notes: also called Clone No. 14
B12: BAP049-hum07 (antibody, human IgG4 S228P, kappa)
heavy chain: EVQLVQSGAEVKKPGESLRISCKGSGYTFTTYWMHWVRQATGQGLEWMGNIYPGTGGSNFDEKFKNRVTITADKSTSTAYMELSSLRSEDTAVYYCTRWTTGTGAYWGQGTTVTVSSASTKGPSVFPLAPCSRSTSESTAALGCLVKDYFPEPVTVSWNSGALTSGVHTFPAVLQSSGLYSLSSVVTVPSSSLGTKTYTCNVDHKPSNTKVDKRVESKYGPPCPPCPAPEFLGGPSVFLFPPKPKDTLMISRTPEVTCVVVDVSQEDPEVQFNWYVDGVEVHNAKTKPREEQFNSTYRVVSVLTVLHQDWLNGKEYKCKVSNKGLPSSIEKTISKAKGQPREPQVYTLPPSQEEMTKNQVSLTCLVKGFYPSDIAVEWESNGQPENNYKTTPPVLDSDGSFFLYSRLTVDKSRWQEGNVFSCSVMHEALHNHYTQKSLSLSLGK
light chain: B3 light with Q48K, R51K
notes: also called Clone No. 7
B13: BAP049-hum16 (antibody, human IgG4 S228P, kappa, V domains shown)
VH: B6 VH with I37V, S40A, S42G, R43Q, L48M
VL: EIVLTQSPDFQSVTPKEKVTITCKSSQSLLDSGNQKNFLTWYQQKPGQAPRLLIYWASTRESGVPSRFSGSGSGTDFTFTISSLEAEDAATYYCQNDYSYPYTFGQGTKVEIKR
notes: also called Clone No. 16
B14: BAP049-hum04 (antibody, human IgG4 S228P, kappa, V domains shown)
VH: B6 VH
VL: B4 VL with Q48K, R51K, E76D, L79F, D87E, F89I
notes: also called Clone No. 4
B15: BAP049-hum15 (antibody, human IgG4 S228P, kappa)
heavy chain: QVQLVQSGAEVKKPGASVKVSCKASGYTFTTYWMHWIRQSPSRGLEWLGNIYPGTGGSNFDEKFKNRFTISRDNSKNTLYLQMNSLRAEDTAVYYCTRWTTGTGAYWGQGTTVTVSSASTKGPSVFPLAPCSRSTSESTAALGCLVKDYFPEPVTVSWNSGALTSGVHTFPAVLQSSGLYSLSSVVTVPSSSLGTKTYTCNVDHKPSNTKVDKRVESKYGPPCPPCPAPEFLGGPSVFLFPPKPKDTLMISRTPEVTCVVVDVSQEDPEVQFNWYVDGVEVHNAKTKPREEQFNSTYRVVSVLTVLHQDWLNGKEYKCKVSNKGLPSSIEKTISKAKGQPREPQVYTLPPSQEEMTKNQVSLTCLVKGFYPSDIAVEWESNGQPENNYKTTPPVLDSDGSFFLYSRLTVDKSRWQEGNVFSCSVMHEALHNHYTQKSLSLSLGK
light chain: B3 light with A9D, T10F, L11Q, L13V, S14T, G16K, R18K, A19V, L21I, S22T
notes: also called Clone No. 15
B16: BAP049-hum06 (antibody, human IgG4 S228P, kappa)
heavy chain: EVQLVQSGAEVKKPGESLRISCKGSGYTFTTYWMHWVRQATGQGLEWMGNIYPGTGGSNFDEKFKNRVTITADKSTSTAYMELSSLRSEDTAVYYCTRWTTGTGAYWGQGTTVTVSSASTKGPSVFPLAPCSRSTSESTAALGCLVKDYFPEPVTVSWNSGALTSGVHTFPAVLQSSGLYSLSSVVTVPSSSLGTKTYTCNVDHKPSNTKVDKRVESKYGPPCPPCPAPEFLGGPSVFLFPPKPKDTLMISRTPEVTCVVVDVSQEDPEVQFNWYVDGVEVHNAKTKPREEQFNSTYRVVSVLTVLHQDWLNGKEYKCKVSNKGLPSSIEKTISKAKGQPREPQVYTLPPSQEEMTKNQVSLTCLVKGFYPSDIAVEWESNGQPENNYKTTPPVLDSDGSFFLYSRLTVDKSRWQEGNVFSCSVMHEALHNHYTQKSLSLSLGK
light chain: DIVMTQTPLSLPVTPGEPASISCKSSQSLLDSGNQKNFLTWYQQKPGQAPRLLIYWASTRESGVPSRFSGSGSGTDFTFTISSLEAEDAATYYCQNDYSYPYTFGQGTKVEIKRTVAAPSVFIFPPSDEQLKSGTASVVCLLNNFYPREAKVQWKVDNALQSGNSQESVTEQDSKDSTYSLSSTLTLSKADYEKHKVYACEVTHQGLSSPVTKSFNRGEC
notes: also called Clone No. 6
B17: BAP049-hum09 (antibody, human IgG4 S228P, kappa)
heavy: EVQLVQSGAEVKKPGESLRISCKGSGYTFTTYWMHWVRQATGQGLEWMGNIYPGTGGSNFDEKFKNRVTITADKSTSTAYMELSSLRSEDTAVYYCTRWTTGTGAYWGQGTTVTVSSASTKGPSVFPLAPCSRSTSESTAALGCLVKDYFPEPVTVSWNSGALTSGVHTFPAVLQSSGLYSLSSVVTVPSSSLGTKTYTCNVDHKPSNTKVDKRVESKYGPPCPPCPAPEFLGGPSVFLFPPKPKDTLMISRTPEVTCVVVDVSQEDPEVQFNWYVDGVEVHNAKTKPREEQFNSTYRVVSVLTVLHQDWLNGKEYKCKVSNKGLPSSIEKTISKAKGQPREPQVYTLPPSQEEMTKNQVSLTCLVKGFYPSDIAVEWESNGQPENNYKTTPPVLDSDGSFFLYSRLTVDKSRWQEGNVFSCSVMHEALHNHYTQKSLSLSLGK
light: B3 light with A9D, T10F, L11Q, L13V, S14T, G16K, R18K, A19V, L21I, S22T
notes: Humanized mAb
B18: BAP049-hum13 (antibody, human IgG4 S228P, kappa)
heavy chain: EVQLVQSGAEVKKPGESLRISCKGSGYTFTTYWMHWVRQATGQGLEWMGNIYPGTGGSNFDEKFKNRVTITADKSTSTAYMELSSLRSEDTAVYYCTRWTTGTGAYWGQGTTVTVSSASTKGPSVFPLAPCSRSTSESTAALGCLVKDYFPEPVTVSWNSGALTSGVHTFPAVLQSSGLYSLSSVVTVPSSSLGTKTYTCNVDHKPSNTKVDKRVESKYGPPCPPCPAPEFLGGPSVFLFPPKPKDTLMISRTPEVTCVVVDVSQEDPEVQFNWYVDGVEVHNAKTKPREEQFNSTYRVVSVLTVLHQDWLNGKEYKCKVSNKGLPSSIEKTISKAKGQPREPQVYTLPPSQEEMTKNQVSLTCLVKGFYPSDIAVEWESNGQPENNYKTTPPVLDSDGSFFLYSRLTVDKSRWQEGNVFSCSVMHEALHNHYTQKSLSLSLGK
light chain: B16 light chain with I2V, T7S, P15L, E17Q, Q48K, R51K
notes: also called Clone No. 13

Each binder was assayed against T1, Programmed Death 1 (PD-1) (UniProt Q15116 25-167, limits assumed) (assay: FACS ligand blocking: mAb titrated, signal of ligand-Ig bound to PD-1; legend paragraph 46 names PD-L1-Ig and PD-L2-Ig as blocked ligands for FIG. 8A; cells not named).
T1 sequence (Q15116 25-167 limits assumed): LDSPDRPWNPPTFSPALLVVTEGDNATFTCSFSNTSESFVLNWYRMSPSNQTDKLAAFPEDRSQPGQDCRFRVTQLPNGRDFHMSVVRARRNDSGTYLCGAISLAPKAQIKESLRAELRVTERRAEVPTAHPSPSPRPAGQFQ

Binder | IC50 (read off the curve)
B1 | ~0.8 µg/mL
B2 | ~0.6 µg/mL
B3 | ~1 µg/mL
B4 | ~1 µg/mL
B5 | ~1 µg/mL

The binders below were run against T1, Programmed Death 1 (PD-1) (assay: rank among the 16 humanized clones by FACS data (order agrees with the 200 ng/ml bars of FIGURE 4, 1 = highest)).

Binder | Ranking FACS data
B6 | 7
B7 | 3
B8 | 6
B3 | 7
B9 | 6
B10 | 7
B11 | 16
B12 | 4
B4 | 2
B13 | 15
B14 | 14
B15 | 6
B16 | 1
B5 | 5
B17 | 7
B18 | 6

These binders were tested against T2, PD-1 on PD-1-expressing 300.19 cells (UniProt Q15116 25-288, limits assumed) (assay: rank among the 16 humanized clones in competition binding against labeled murine mAb BAP049, 2nd exp. (FIGURE 6B)).
T2 construct: whole, on cells
T2 sequence (Q15116 25-288 limits assumed): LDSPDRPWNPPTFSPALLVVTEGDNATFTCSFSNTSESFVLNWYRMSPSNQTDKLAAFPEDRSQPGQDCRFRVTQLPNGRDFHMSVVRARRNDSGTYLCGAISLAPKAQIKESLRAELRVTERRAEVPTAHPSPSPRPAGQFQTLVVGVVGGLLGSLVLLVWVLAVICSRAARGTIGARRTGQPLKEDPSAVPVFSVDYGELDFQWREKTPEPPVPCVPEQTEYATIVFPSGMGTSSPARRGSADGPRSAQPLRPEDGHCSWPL

Competition Binding 2nd exp. | Binder
14 | B6
16 | B7
2 | B8
> 4 | B3
> 4 | B9
4 | B10
15 | B11
> 4 | B12
2 | B4
15 | B13
15 | B14
15 | B15
3 | B16
> 4 | B5
4 | B17
1 | B18

These binders were tested against T2, PD-1 on PD-1-expressing 300.19 cells (assay: rank among the 16 humanized clones in competition binding against labeled murine mAb BAP049, 1st exp. (FIGURE 6A)).

Competition Binding 1st exp. | Binder
8 | B6
8 | B7
3 | B8
6 | B3
4 | B9
7 | B10
7 | B11
7 | B12
7 | B4
16 | B13
15 | B14
7 | B15
7 | B16
5 | B5
2 | B17
1 | B18
